Numbering of substitutions follows the chain as printed.
Tests used:
7-peptide YQDSAKT = assay: phage display panning on coated MAb; 3 clones
7-peptide GGWGPFA = assay: phage display panning on coated MAb; 1 clone
7-peptide MLWGPSD = assay: phage display panning on coated MAb; 1 clone
7-peptide TNLRLDS = assay: phage display panning on coated MAb; 1 clone
7-peptide ALWGPTS = assay: phage display panning on coated MAb; 1 clone
7-peptide QPATWNT = assay: phage display panning on coated MAb; 1 clone
NE2 mutant 601LI = biological target: T1, NE2 mutant 601LI (hepatitis E virus, UniProt P29326 394-600); assay: WB
T1 chain: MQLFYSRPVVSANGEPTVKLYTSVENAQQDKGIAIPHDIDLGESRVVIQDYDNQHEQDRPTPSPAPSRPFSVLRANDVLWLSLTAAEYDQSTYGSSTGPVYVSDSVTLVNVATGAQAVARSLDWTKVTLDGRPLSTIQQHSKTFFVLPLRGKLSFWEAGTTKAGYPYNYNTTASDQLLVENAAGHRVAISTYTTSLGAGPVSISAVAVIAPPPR

NE2 mutant 601LC = biological target: T2, NE2 mutant 601LC (hepatitis E virus, UniProt P29326 394-600); assay: WB
T2 construct: position counted on HEV ORF2
T2 chain: T1 chain with I209C

NE2 mutant 601LG = biological target: T3, NE2 mutant 601LG (hepatitis E virus, UniProt P29326 394-600); assay: WB
T3 construct: position counted on HEV ORF2
T3 chain: T1 chain with I209G

NE2 mutant 601LQ = biological target: T4, NE2 mutant 601LQ (hepatitis E virus, UniProt P29326 394-600); assay: WB
T4 construct: position counted on HEV ORF2
T4 chain: T1 chain with I209Q

NE2 mutant 601LP = biological target: T5, NE2 mutant 601LP (hepatitis E virus, UniProt P29326 394-600); assay: WB
T5 construct: position counted on HEV ORF2
T5 chain: T1 chain with I209P

Measured: binding result

B1: monoclonal antibody 16D7 (antibody, V domains shown)
VH: EVQLQQSGPELVKPGASVKMSCKASGYKFTSYVMHWVKQKPGQGLEWIGYINPSNDNIKYNEKFKGKAILTLDKSSSTAYMAFSSLTSEDSAVYYCATLTGVDYWGQGTTLTVSS
VL: DVVMTQTPLSLSVTIGQPASISCKSSQSLLYRNGKIYLNWLQQRPGQAPKHLMSQVSKLDPGIPDRFSGSGSETDFTLKISRVEAEDLGVYYCLQGTHYPYTFGGGTKLEIKR
notes: also called MAb 16D7; HRP-16D7
binds: all assays above

Reference: patent US20060233822A1 (YANG SHENG TANG, published 2006)
